Experimental data: patent publication US20260116971A1 (published 2026)
Substitutions are numbered along the chain they refer to. Blank lines part the entries; values can stand above or below the binder they belong to.

What was measured:
[1] = biological target: T1, Chlorocebus (African green monkey) Nectin-2 (Chlorocebus (African green monkey)); assay: FACS binding; Vero cells
T1 chain: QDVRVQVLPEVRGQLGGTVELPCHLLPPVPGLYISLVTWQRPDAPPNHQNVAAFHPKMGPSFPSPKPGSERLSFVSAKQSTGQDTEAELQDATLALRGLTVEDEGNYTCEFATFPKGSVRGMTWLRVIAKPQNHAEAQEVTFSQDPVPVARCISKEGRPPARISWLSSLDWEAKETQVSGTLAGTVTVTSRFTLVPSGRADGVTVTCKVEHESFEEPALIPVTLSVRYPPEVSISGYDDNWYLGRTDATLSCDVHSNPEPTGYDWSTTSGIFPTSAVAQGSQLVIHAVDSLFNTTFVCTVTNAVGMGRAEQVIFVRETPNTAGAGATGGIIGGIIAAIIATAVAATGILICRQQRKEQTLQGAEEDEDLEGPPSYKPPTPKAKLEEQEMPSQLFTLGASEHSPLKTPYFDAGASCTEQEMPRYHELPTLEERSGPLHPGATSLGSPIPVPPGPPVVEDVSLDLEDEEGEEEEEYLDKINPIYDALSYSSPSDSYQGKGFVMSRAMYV

[2] = biological target: T2, cynomolgus (Cyno) monkey (Macaca fascicularis) Nectin-2 (cynomolgus monkey (Macaca fascicularis), UniProt A0A2K5U084 32-538); assay: FACS binding; CHO cells expressing cyno Nectin-2
T2 chain: T1 chain with N47D, E70Q, G82R, I481V

EC50 [1]: 0.16 nM
EC50 [2]: 0.2 nM
B1: anti-Nectin-2 monoclonal antibody clone 11 (antibody, V domains shown)
VH: EVQLQQSGTVLTRPGASVKMSCKASGYIFTSYWIHWVKQRPGQGLEWIGAVYPGNSDSNYNQKFKAKAKLTAVTSTSTAYMELSSLTSEDSAVYYCTKLVGTFDYWGQGTTLTVSS
VL: DIVMTQSQKFMSSSIGDRVSVTCKASQNVGINVVWYQQRAGQSPKTLIYSASYRYSGVPDRFTGSGSGTDFTLTISNVQSEDLAEYFCQQYNTNPFTFGSGTKLEIK

EC50 [1]: 0.23 nM
EC50 [2]: 0.66 nM
B2: anti-Nectin-2 monoclonal antibody clone 7 (antibody, V domains shown)
VH: DVNLVESGGGLVKPGGSLKLSCAASGFTFSRFTMSWVRQTPEKTLDWVATISSGGSYTYYPDSVKGRFTISRDNAKNTLYLQMSSLKSEDTAMYYCTRDRDFYGPYYAMDYWGQGTSVTVSS
VL: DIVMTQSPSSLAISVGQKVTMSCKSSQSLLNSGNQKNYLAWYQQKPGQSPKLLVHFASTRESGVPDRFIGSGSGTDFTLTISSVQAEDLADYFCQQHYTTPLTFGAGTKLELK
